A short description of the series: yeast display, Sf9 membrane polyspecificity reagent, FACS + sequencing; frameworks hold sequencing errors. The method in brief: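 Galactose induction of a Saccharomyces cerevisiae BJ5465 synthetic nanobody display library ran 36–48 hours. The cells were then stained for 1 hour at 4 °C with 10% biotinylated, detergent-solubilized Sf9 membrane reagent, pulled down on streptavidin microbeads and FACS-sorted into low and high (top ~1%) gates on expression and reagent-binding fluorescence. Labels for polyreactivity follow the gate of origin.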
In the case of “QVQLVESGGGLVQAGGSLRLSCAASGRIFVRNAMGWYRQAPGKERELVAAISRSGGSTYYADSVKGRFTISRDNAKNTVYLQMNSLKPEDTAVYYCNKGFNYGGWFKKYGYWGQGTQVTVSS”, the “polyreactivity (PSR sort gate)” value is “high polyreactivity”.

Turning to “QVQLVESGGGLVQAGGSLRLSCAASGRIFVRNAMGWYRQAPGKERELVAAISWRGTSTYYADSVKGRFTISRDNAKNTVYLQMNSLKPEDTAVYYCAKRISGYRGDYWGQGTQVTVSS”, the “polyreactivity (PSR sort gate)” value is reported as “high polyreactivity”.

In the case of “QVQLVESGGGLVQAGGSLRLSCAASGRIFVRNAMGWYRQAPGKERELVAGISNAGRTNYADSVKGRFTISRDNAKNTVYLQMNSLKPEDTAVYYCAKRPGYDYDYWGQGTQVTVSS”, the “polyreactivity (PSR sort gate)” value is recorded as “high polyreactivity”.

Take “QVQLVESGGGLVQAGGSLRLSCAASGRIFVRNAMGWYRQAPGKEREMVAAISASGGSTYYADSVKGRFTISRDNAKNTVYLLMNSLKPEDTAVYYCNAYRAYYDLAYGYWGQGTQVTVSS”: the “polyreactivity (PSR sort gate)” value is recorded as “high polyreactivity”.

As for “QVQLVESGGGLVQAGGSLRLSCAASGRIFVRNGMGWYRQAPGKERELVAAISASGGNTYYADSVKGRFTISRDNAKNTVYLQMNSLKPEDTAVYYCATTRRVPGEYWGQGTQVTVSS”, the “polyreactivity (PSR sort gate)” value is recorded as “high polyreactivity”.

As to “QVQLVESGGGLVQAGGSLRLSCAASGRIFVTNTMGWYRQAPGKERELVAAIDNSAGSTYYADSVKGRFTISRDNAKNTVYLQMNSLIPEDTAVYYCAADYPPYYAYGYWGQGTQVTVSS”, the “polyreactivity (PSR sort gate)” value is “low polyreactivity”.

Regarding “QVQLVESGGGLVQAGGSLRLSCAASGRIFVVNAMGWYRQAPGKERELVAAISSSSDSTYYADSVKGRFTISRDNAKNTVYLQMNSLKPEDTAVYYRAADYHYDGYWIYDYWGLGTQVTVSS”, the “polyreactivity (PSR sort gate)” value was “high polyreactivity”.

Take “QVQLVESGGGLVQAGGSLRLSCAASGRIFVVNAMGWYRQAPGKERELVAAITRRGGSTYADSVKGRFTISRDNAKNTVYLQMNSLKPEDTAVYYCNAESYYGIFRYKYDYWGQGTQVTVSS”: the “polyreactivity (PSR sort gate)” value is reported as “high polyreactivity”.

Regarding “QVQLVESGGGLVQAGGSLRLSCAASGRIFVVYAMGWYRQAPGTETELVANITISGGRTYYADSVKGRFTISRDNAKNTVYVQMNSLKPEDTAVYYCAATSGALYYGYEYWGQGTQVTVSS”, the “polyreactivity (PSR sort gate)” value is listed as “low polyreactivity”.

On to “QVQLVESGGGLVQAGGSLRLSCAASGRIFVYKAMGSYRQAPGKERELVASITSSGGSTYYADSVKGRFTISRDNAKNTVYLQMNSLKPEDTAVYYCAADVQPDTRSTPEMDYWGQGTQVTVSS”, for which the “polyreactivity (PSR sort gate)” value is on record as “low polyreactivity”.

As for “QVQLVESGGGLVQAGGSLRLSCAASGRIFVYNAMGWYRQAPGKEREFVAAISWDGASTYYADSVKGRFTISRDNAKNTVYLQMNSLKPEDTAVYYCAASYRRKLYNDYWGQGTQVTVSS”, the “polyreactivity (PSR sort gate)” value is given as “low polyreactivity”.

Take “QVQLVESGGGLVQAGGSLRLSCAASGRIFVYNAMGWYRQAPGKEREFVASINWSGSSTYADSVKGRFTISRDNAKNTVYLQMNSLKQEDTAVYYCAARRWRYEAYRSQYDYGYWGQGTQVTVSS”: the “polyreactivity (PSR sort gate)” value was “low polyreactivity”.

Regarding “QVQLVESGGGLVQAGGSLRLSCAASGRIFVYNAMGWYRQAPGKERELVAAISRSGSSTYYADSVKGRFTISRDNAKNTVYLQMNSLKPEDTAVYYCNAVLSRWTQSGKYRYRYFGFEYWGQGTQVTVSS”, the “polyreactivity (PSR sort gate)” value is on record as “high polyreactivity”.

In the case of “QVQLVESGGGLVQAGGSLRLSCAASGRIFVYNAMGWYRQAPGKERELVAAISWSGGSTYYADSVKGRFTISRDNAKNTVYLQMNSLKPEDTAVYYCAAYYSARRGHYRNSYGYDYWGQGTQVTVSS”, the “polyreactivity (PSR sort gate)” value is on record as “high polyreactivity”.

With “QVQLVESGGGLVQAGGSLRLSCAASGRIFVYNAMGWYRQAPGKERELVAAITYSVDSTYYADSVKGRFTISRDNAKNTVYLQMNSLKPEDTAVYYCAADDFHYVIHAYYSSGVDYWGQGTQVTVSS”, the “polyreactivity (PSR sort gate)” value is “low polyreactivity”.

In the case of “QVQLVESGGGLVQAGGSLRLSCAASGRIFVYNAMGWYRQAPGKERELVASISSTTSTYYADSVKGRFTISRDNAKNTVYLQMNSLKPEDTAVYYCNARYQTRYGRYWYKVRGMDYWGQGTQVTVSS”, the “polyreactivity (PSR sort gate)” value is “high polyreactivity”.

For the sequence “QVQLVESGGGLVQAGGSLRLSCAASGRIFVYNAMGWYRQAPGKERELVASISWSGDSTYADSVKGRFTISRDNAKNTVYLQMNSLKPEDTAVYYCAAYSQADYQNMDYWGQGTQVTVSS”, the “polyreactivity (PSR sort gate)” value is on record as “low polyreactivity”.

On to “QVQLVESGGGLVQAGGSLRLSCAASGRIFVYNVMGWYRQAPGKERELVAAISWGTGSTYADSVKGRFTISRDNAKNTVYLQMNSLKPEDTAVYYCAADWLSTKNDYWGQGTQVTVSS”, for which the “polyreactivity (PSR sort gate)” value was “low polyreactivity”.

As to “QVQLVESGGGLVQAGGSLRLSCAASGRIFVYNVMGWYRQAPGKERELVADISVGGGSTYYADSVKGRFTISRDNAKNTVYLQMNSLKPEDTAVYYCAASYYSGQSVRDDIMYYWGQGTQVTVSS”, the “polyreactivity (PSR sort gate)” value was “low polyreactivity”.

For the sequence “QVQLVESGGGLVQAGGSLRLSCAASGRIFVYYDMGWYRQAPGKEREVVAAISSTGGSTNYADSVKGRFTISRDNAKNTVYLQMNSLKPEDTAVYYCNAALWRIAYPYGYYQYDYWGQGTQVTVSS”, the “polyreactivity (PSR sort gate)” value is listed as “low polyreactivity”.

For “QVQLVESGGGLVQAGGSLRLSCAASGRIFVYYTMGWYRQAPGKERELVAAITGSGGSTYYADSVKGRFTISRDNAKNTVYLQMNSLKPEDTAVYYCAVYDSYRKFKYWGQGTQVTVSS”, the “polyreactivity (PSR sort gate)” value is listed as “high polyreactivity”.

In the case of “QVQLVESGGGLVQAGGSLRLSCAASGRIFWDYGMGWYRQAPGKERELVAVITWGGGSTYYADSVKGRFTISRDNAKNTVYLQMNSLKPEDTAVYYCAKEYHYYYWGQGTQVTVSS”, the “polyreactivity (PSR sort gate)” value was “low polyreactivity”.

As to “QVQLVESGGGLVQAGGSLRLSCAASGRIFWFYAMGWYRQATGKERELVAAINTSVGRTHYADSVKGRFTISRDNAKNTVYLQMNSLKPEDTAVYYCASDVKRYGWEYGYWGQGTQVTVSS”, the “polyreactivity (PSR sort gate)” value is reported as “low polyreactivity”.

With “QVQLVESGGGLVQAGGSLRLSCAASGRIFWFYTMGWYRQAPGKERELVAAISTSGGSTYYADSVKGRFTISRDNAKNTVYLQMNSLKPEDTAVYYCAAQNGYYPQHDYWGQGTQVTVSS”, the “polyreactivity (PSR sort gate)” value is “high polyreactivity”.

Regarding “QVQLVESGGGLVQAGGSLRLSCAASGRIFWGYAMGWYRQAPGKERELVAAINRGSSTYYADSVKGRFTISRDNAKNTVYLQMNSLKPEDTAVYYCAVKGYLPYTGIFDYWGQGTQVTVSS”, the “polyreactivity (PSR sort gate)” value was “high polyreactivity”.

With “QVQLVESGGGLVQAGGSLRLSCAASGRIFWINALGWYRQAPGKERELVAAISWRGDSTYYADSVKGRFTISRDNAKNTVYLQMNSLKPEDTAVYYCAATWYSWGSEFDYWGQGTQVTVSS”, the “polyreactivity (PSR sort gate)” value is listed as “high polyreactivity”.

As for “QVQLVESGGGLVQAGGSLRLSCAASGRIFWRNALGWYRQAPGKERELVAAITYSGGSTYYADSVKGRFTISRDNAKNTVYVQMNSLNPEDTAVYYCNTVEGWRYYGQSLYAYYYWGQGTQVTVSS”, the “polyreactivity (PSR sort gate)” value is recorded as “high polyreactivity”.

As for “QVQLVESGGGLVQAGGSLRLSCAASGRIFWRNAMGWNRQAPGKERELVAAISSGGSTYYADSVKGRFTISRDNAKNTVYLQMNSLKPEDTAVYYCAARSSWRGGSYDHFERDYWGQGTQVTVSS”, the “polyreactivity (PSR sort gate)” value is listed as “high polyreactivity”.

Take “QVQLVESGGGLVQAGGSLRLSCAASGRIFWSYAMGWYRQAPGKERELVAAISYSGGGTYYADSVKGRFTISRDNAKNTVYLQMNSLKPEDTAVYYCAAETYYAPYDYWGQGTQVTVSS”: the “polyreactivity (PSR sort gate)” value is reported as “high polyreactivity”.

As for “QVQLVESGGGLVQAGGSLRLSCAASGRIFWTNAMGWYRQAPGKERELVAAISRSGGSTYYADSVKGRFTISRDNAKNTVYLQMNSLKPEDTAVYYCAARAGRRPYDYWGQGTQVTVSS”, the “polyreactivity (PSR sort gate)” value is “high polyreactivity”.

As to “QVQLVESGGGLVQAGGSLRLSCAASGRIFWTNDMGWYRQAPGKERELVAVISSDTGSTDYADSVKGRFTISRDNAKNTVYLQMNSLKPEDTAVFYCNKRGLSRVNYWGQGTQVTVSS”, the “polyreactivity (PSR sort gate)” value is listed as “low polyreactivity”.

Regarding “QVQLVESGGGLVQAGGSLRLSCAASGRIFWTYAMGWYRPAPGKERELVAAITWRGGSTSYADSVKGRFTISRDNAKNTVYLQMNSLKPEDTAVYYCNARYSGYSPWGNDYWGQGTQVTVSS”, the “polyreactivity (PSR sort gate)” value is “high polyreactivity”.

For the sequence “QVQLVESGGGLVQAGGSLRLSCAASGRIFWVNAMGWYRQAPGKEREFVAAISWSGGSTYADSVKGRFTISRDNAKNTVYLQMNSLKPEDTAVYYCAADRYNGRYGYWGQGTQVTVSS”, the “polyreactivity (PSR sort gate)” value is given as “high polyreactivity”.

As for “QVQLVESGGGLVQAGGSLRLSCAASGRIFWVNAMGWYRQAPGKERELVARIRGRSGSTYYADSVKGRFTISRDNAKNTVYLQMHSLKPEDTAVYYCNADFNRKVAGTPEVDYWGQGTQVTVSS”, the “polyreactivity (PSR sort gate)” value is given as “high polyreactivity”.

Consider “QVQLVESGGGLVQAGGSLRLSCAASGRIFWYNAMGWYRQAPAKERELVAGITRSGGRTYYADSVKGRFTISRDNAKNTVYLQMNSLKPEDTAVYYCAAAPYARRDYEYWGQGTQVTVSS”, for which the “polyreactivity (PSR sort gate)” value was “high polyreactivity”.

In the case of “QVQLVESGGGLVQAGGSLRLSCAASGRIFWYNAMGWYRQAPGKERELVAVISTRGGRTYYADSVKGRFTISRDNAKNTVYLQMNSLKPEDTAVYYCAAEFLNKAVGGVTSIYDSWGQGTQVTVSS”, the “polyreactivity (PSR sort gate)” value is on record as “low polyreactivity”.

Regarding “QVQLVESGGGLVQAGGSLRLSCAASGRIFWYYAMGWYRQAPGKERELVAAINSGGNTNYADSVKGRFTISRDNAKNTVYLQMNSLKPEDTAVYYCNAGRRYDTYPGDYWGQGSQVTVSS”, the “polyreactivity (PSR sort gate)” value is given as “high polyreactivity”.

Regarding “QVQLVESGGGLVQAGGSLRLSCAASGRIFWYYAMGWYRQAPGKERELVAAITRGGITTYADSVKGRYTISRDNAKNTVYLQMNSLKPEDTAVYYCNAVPWYGRMDYWGQGTQVTVSS”, the “polyreactivity (PSR sort gate)” value is listed as “low polyreactivity”.

For the sequence “QVQLVESGGGLVQAGGSLRLSCAASGRIFWYYAMGWYRQAPGKERELVAAITRSGASTYYADSVKGRFTISRDNAKNTVYLQMNSLKREDTAVYYCAADTGRYRYVYEYYYWGLGTQVTVSS”, the “polyreactivity (PSR sort gate)” value is on record as “high polyreactivity”.

Consider “QVQLVESGGGLVQAGGSLRLSCAASGRIFWYYAMGWYRQAPGKERELVARISSSGGSTYYADSVKGRFTISRDNAKNTVYLQMNSLKTDYTAVYFWAKERYSGSSRYPMDYWGQGTQVTVSS”, for which the “polyreactivity (PSR sort gate)” value is “high polyreactivity”.

As to “QVQLVESGGGLVQAGGSLRLSCAASGRIFWYYAMGWYRQAPGKEWELVATITYSGVRTYYADSVKGRFTISRDNAKNTVYLQMNSLKPEDTAVYYCAAVPGASVYGYYWKFGYWGQGTQVTVSS”, the “polyreactivity (PSR sort gate)” value is “high polyreactivity”.

Source of the values: the nanobody polyreactivity screen of Harvey et al. (2022).
